# From US20140242093A1, “METHODS AND COMPOSITIONS FOR MODULATING THE INNATE IMMUNE RESPONSE AND/OR MYOGENESIS IN A MAMMALIAN SUBJECT” (FRED HUTCHINSON CANCER RESEARCH CENTER, priority 2011, published 2014)
# Entries after “also recorded” stand apart in the source; their conditions may differ.
# B1: DUX4-s: short splice form of DUX4 (SEQ ID NO:112), keeps the double-homeobox domains, lacks the C-terminal activation domain (protein, listed as Homo sapiens)
# chain: MALPTPSDSTLPAEARGRGRRRRLVWTPSQSEALRACFERNPYPGIATRERLAQAIGIPEPRVQIWFQNERSRQLRQHRRESRPWPGRRGPPEGRRKRTAVTGSQTALLLRAFEKDRFPGIAAREELARETGLPESRIQIWFQNRRARHPGQGGRAPAQV
# Columns and labels:
# [1] = system: Human myoblasts; experiment: Expression array of the innate immune response to lentiviral infection versus uninfected cells; type: cell-based
# Description: RNA was harvested from the lenti-viral infected cells and uninfected control cells at 24 hours after infection.
# [2] = system: FSHD cultured myoblasts; experiment: Dominant negative inhibition of DUX4-fl by lenti-DUX4-s in FSHD muscle cells; type: cell-based, human; settings: lentiviral expression in FSHD muscle cells, 48 hours of differentiation
# Description: Simultaneously, cells were transduced by lentivirus carrying DUX4-s or GFP along with 8 μg/mL polybrene. Cells were washed and changed to plain differentiation media after 24 hours. Cells were harvested for RNA after 48 hours of differentiation. Untransduced cells were used to assess baseline expression of DUX4-fl target genes.
molecule,measurement,setting,value
B1,IFITM3 expression ratio vs GFP (.fc),"[1]; gene IFITM3 NM_021034.2, vs lenti-GFP, 24 hours after infection",−0.13 log2 fold change
same,IFITM3 expression ratio vs NoLenti (.fc),"[1]; gene IFITM3 NM_021034.2, vs uninfected, 24 hours after infection",1.84 log2 fold change
same,IL1R1 expression ratio vs GFP (.fc),"[1]; gene IL1R1 NM_000877.2, vs lenti-GFP, 24 hours after infection",0.30 log2 fold change
same,IL1R1 expression ratio vs NoLenti (.fc),"[1]; gene IL1R1 NM_000877.2, vs uninfected, 24 hours after infection",1.61 log2 fold change
same,IL7R expression ratio vs GFP (.fc),"[1]; gene IL7R NM_002185.2, vs lenti-GFP, 24 hours after infection",0.57 log2 fold change
same,IL7R expression ratio vs NoLenti (.fc),"[1]; gene IL7R NM_002185.2, vs uninfected, 24 hours after infection",2.05 log2 fold change
same,IL8 expression ratio vs GFP (.fc),"[1]; gene IL8 NM_000584.2, vs lenti-GFP, 24 hours after infection",1.19 log2 fold change
same,IL8 expression ratio vs NoLenti (.fc),"[1]; gene IL8 NM_000584.2, vs uninfected, 24 hours after infection",4.69 log2 fold change
same,IL18BP expression ratio vs GFP (.fc),"[1]; gene IL18BP NM_173042.2, vs lenti-GFP, 24 hours after infection",1.40 log2 fold change
same,IL18BP expression ratio vs NoLenti (.fc),"[1]; gene IL18BP NM_173042.2, vs uninfected, 24 hours after infection",3.37 log2 fold change
same,IRF7 expression ratio vs GFP (.fc),"[1]; gene IRF7 NM_004029.2, vs lenti-GFP, 24 hours after infection",1.14 log2 fold change
same,IRF7 expression ratio vs NoLenti (.fc),"[1]; gene IRF7 NM_004029.2, vs uninfected, 24 hours after infection",3.99 log2 fold change
same,IRF9 expression ratio vs GFP (.fc),"[1]; gene IRF9 NM_006084.4, vs lenti-GFP, 24 hours after infection",0.29 log2 fold change
same,IRF9 expression ratio vs NoLenti (.fc),"[1]; gene IRF9 NM_006084.4, vs uninfected, 24 hours after infection",2.72 log2 fold change
same,MX1 expression ratio vs GFP (.fc),"[1]; gene MX1 NM_002462.2, vs lenti-GFP, 24 hours after infection",0.26 log2 fold change
same,MX1 expression ratio vs NoLenti (.fc),"[1]; gene MX1 NM_002462.2, vs uninfected, 24 hours after infection",7.49 log2 fold change
same,NFIL3 expression ratio vs GFP (.fc),"[1]; gene NFIL3 NM_005384.2, vs lenti-GFP, 24 hours after infection",0.32 log2 fold change
same,NFIL3 expression ratio vs NoLenti (.fc),"[1]; gene NFIL3 NM_005384.2, vs uninfected, 24 hours after infection",2.16 log2 fold change
same,NFKBIA expression ratio vs GFP (.fc),"[1]; gene NFKBIA NM_020529.1, vs lenti-GFP, 24 hours after infection",0.28 log2 fold change
same,NFKBIA expression ratio vs NoLenti (.fc),"[1]; gene NFKBIA NM_020529.1, vs uninfected, 24 hours after infection",2.46 log2 fold change
same,NFKBIZ expression ratio vs GFP (.fc),"[1]; gene NFKBIZ NM_001005474.1, vs lenti-GFP, 24 hours after infection",−0.26 log2 fold change
same,NFKBIZ expression ratio vs NoLenti (.fc),"[1]; gene NFKBIZ NM_001005474.1, vs uninfected, 24 hours after infection",1.58 log2 fold change
same,STAT1 expression ratio vs GFP (.fc),"[1]; gene STAT1 NM_007315.2, vs lenti-GFP, 24 hours after infection",0.82 log2 fold change
same,STAT1 expression ratio vs NoLenti (.fc),"[1]; gene STAT1 NM_007315.2, vs uninfected, 24 hours after infection",4.79 log2 fold change
same,STAT2 expression ratio vs GFP (.fc),"[1]; gene STAT2 NM_005419.2, vs lenti-GFP, 24 hours after infection",0.19 log2 fold change
same,STAT2 expression ratio vs NoLenti (.fc),"[1]; gene STAT2 NM_005419.2, vs uninfected, 24 hours after infection",2.11 log2 fold change
same,TLR3 expression ratio vs GFP (.fc),"[1]; gene TLR3 NM_003265.2, vs lenti-GFP, 24 hours after infection",1.67 log2 fold change
same,TLR3 expression ratio vs NoLenti (.fc),"[1]; gene TLR3 NM_003265.2, vs uninfected, 24 hours after infection",2.56 log2 fold change
same,TNFAIP2 expression ratio vs GFP (.fc),"[1]; gene TNFAIP2 NM_006291.2, vs lenti-GFP, 24 hours after infection",0.06 log2 fold change
same,TNFAIP2 expression ratio vs NoLenti (.fc),"[1]; gene TNFAIP2 NM_006291.2, vs uninfected, 24 hours after infection",1.06 log2 fold change
same,TNFAIP3 expression ratio vs GFP (.fc),"[1]; gene TNFAIP3 NM_006290.2, vs lenti-GFP, 24 hours after infection",0.28 log2 fold change
same,TNFAIP3 expression ratio vs NoLenti (.fc),"[1]; gene TNFAIP3 NM_006290.2, vs uninfected, 24 hours after infection",2.50 log2 fold change
same,TNFAIP6 expression ratio vs GFP (.fc),"[1]; gene TNFAIP6 NM_007115.2, vs lenti-GFP, 24 hours after infection",1.31 log2 fold change
same,TNFAIP6 expression ratio vs NoLenti (.fc),"[1]; gene TNFAIP6 NM_007115.2, vs uninfected, 24 hours after infection",5.10 log2 fold change
same,TNFRSF6B expression ratio vs GFP (.fc),"[1]; gene TNFRSF6B NM_032945.2, vs lenti-GFP, 24 hours after infection",0.01 log2 fold change
same,TNFRSF6B expression ratio vs NoLenti (.fc),"[1]; gene TNFRSF6B NM_032945.2, vs uninfected, 24 hours after infection",1.32 log2 fold change
same,TNFRSF10A expression ratio vs GFP (.fc),"[1]; gene TNFRSF10A NM_003844.2, vs lenti-GFP, 24 hours after infection",0.84 log2 fold change
same,TNFRSF10A expression ratio vs NoLenti (.fc),"[1]; gene TNFRSF10A NM_003844.2, vs uninfected, 24 hours after infection",1.81 log2 fold change
same,TNFRSF14 expression ratio vs GFP (.fc),"[1]; gene TNFRSF14 NM_003820.2, vs lenti-GFP, 24 hours after infection",0.57 log2 fold change
same,TNFRSF14 expression ratio vs NoLenti (.fc),"[1]; gene TNFRSF14 NM_003820.2, vs uninfected, 24 hours after infection",1.78 log2 fold change
same,TNFSF10 expression ratio vs GFP (.fc),"[1]; gene TNFSF10 NM_003810.2, vs lenti-GFP, 24 hours after infection",2.97 log2 fold change
same,TNFSF10 expression ratio vs NoLenti (.fc),"[1]; gene TNFSF10 NM_003810.2, vs uninfected, 24 hours after infection",3.88 log2 fold change
same,TNFSF13B expression ratio vs GFP (.fc),"[1]; gene TNFSF13B NM_006573.3, vs lenti-GFP, 24 hours after infection",2.19 log2 fold change
same,TNFSF13B expression ratio vs NoLenti (.fc),"[1]; gene TNFSF13B NM_006573.3, vs uninfected, 24 hours after infection",3.78 log2 fold change
same,number of the 341 lenti-GFP induced genes induced 2-fold or more,"[1]; vs uninfected cells, 24 hours",315 genes
same,"endogenous expression of DUX4 target genes (PRAMEF1, RFPL2, MBD3L2)",[2],inhibited the endogenous expression of the target genes; also recorded: blocks expression of these three DUX4-fl target genes
